Sequences and labels used below:
B1: VDR (parent)
chain: VTLELSQLSMLPHLADLVSYSIQK
B2: DLC1 (parent)
chain: RDAIEALCRRLNTLNKCAVMKLEI
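Also: lentivirally expressed fusions sorted by FACS into six bins by GFP to DsRed ratio, PSI derived from sequencing read proportions per bin multiplied by bin number.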

The variants in the first series derive from B1. Briefly: protein stability index of a GFP-peptide fusion (GPS, HEK-293T) (PSI 1-6); higher = more stable. As to conditions: c terminus: a fixed tail appended.
Turning to VTLELSPLSMLPHLADLVSYSIQK [Q7P], the protein stability index is 2.45.

Regarding VTLELSQLSMLPHLAELVSYSIQK [D16E], the protein stability index came out at 4.21.

Regarding VTLELSQKSMLPHLADLVSYSIQK [L8K], the protein stability index turned out to be 3.33.

On to VTLELSQDSMLPHLADLVSYSIQK [L8D], for which the protein stability index amounted to 2.91.

As for VTLRLSQLSMLPHLADLVSYSIQK [E4R], the protein stability index is 3.12.

Regarding VTLFLSQLSMLPHLADLVSYSIQK [E4F], the protein stability index was determined as 2.88.

As to VTLELSQLSMLPHLADLVPYSIQK [S19P], the protein stability index is 2.63.

Turning to VTLELSQLSMLPHLADLVLYSIQK [S19L], the protein stability index is 4.2.

VTLELSQLSMLPHLADLVDYSIQK [S19D]: the protein stability index was found to be 2.27.

VTLELWQLSMLPHLADLVSYSIQK [S6W]: the protein stability index was 2.88.

Turning to VTLELAQLSMLPHLADLVSYSIQK [S6A], the protein stability index was 2.88.

Consider VTLELSQLSMLPHLADLVSYSEQK [I22E], for which the protein stability index came out at 1.92.

On to VTLELSQLSMLPHLADLVSYSCQK [I22C], for which the protein stability index amounted to 4.35.

Take VTLELSQLSMLPHLADLVSYSIQQ [K24Q]: the protein stability index is 3.06.

As for VTLELSQLSMLPHLADLVSYSIQW [K24W], the protein stability index amounted to 3.71.

As to VTLELSQLSMLPHLADLVSYSIQT [K24T], the protein stability index amounted to 3.5.

In the case of VTLELSQLSMLPHLADLYSYSIQK [V18Y], the protein stability index came to 3.48.

VTLELSQLSMLPHLADLKSYSIQK [V18K]: the protein stability index turned out to be 2.69.

VTLELSQLSMLPHLKDLVSYSIQK [A15K]: the protein stability index was determined as 2.64.

Regarding VTLELSQLSLLPHLADLVSYSIQK [M10L], the protein stability index came out at 2.62.

Take VTLERSQLSMLPHLADLVSYSIQK [L5R]: the protein stability index worked out at 2.5.

In the case of VTLEMSQLSMLPHLADLVSYSIQK [L5M], the protein stability index is 4.44.

With VTLESSQLSMLPHLADLVSYSIQK [L5S], the protein stability index was 1.92.

VTLEVSQLSMLPHLADLVSYSIQK [L5V]: the protein stability index worked out at 2.65.

With VTLELSQLAMLPHLADLVSYSIQK [S9A], the protein stability index is 2.74.

Consider VFLELSQLSMLPHLADLVSYSIQK [T2F], for which the protein stability index was 3.02.

Regarding VRLELSQLSMLPHLADLVSYSIQK [T2R], the protein stability index came to 4.52.

Turning to VTLELSQLSMLPHLADLVSYWIQK [S21W], the protein stability index came out at 3.16.

Take VTLELSQLSMLPHLADLVSYIIQK [S21I]: the protein stability index stood at 1.89.

With STLELSQLSMLPHLADLVSYSIQK [V1S], the protein stability index is 1.99.

In the case of PTLELSQLSMLPHLADLVSYSIQK [V1P], the protein stability index amounted to 1.58.

For VTLELSQLSMLPHYADLVSYSIQK [L14Y], the protein stability index is 3.47.

VTLELSQLSMLPHWADLVSYSIQK [L14W]: the protein stability index amounted to 2.95.

As to VTCELSQLSMLPHLADLVSYSIQK [L3C], the protein stability index turned out to be 1.99.

Regarding VTHELSQLSMLPHLADLVSYSIQK [L3H], the protein stability index came out at 1.6.

Consider VTVELSQLSMLPHLADLVSYSIQK [L3V], for which the protein stability index was found to be 2.45.

VTRELSQLSMLPHLADLVSYSIQK [L3R]: the protein stability index was 1.53.

As to VTLELSQLSMLPHLADLVSYSIYK [Q23Y], the protein stability index stood at 1.97.

As for VTLELSQLSMLPTLADLVSYSIQK [H13T], the protein stability index is 2.23.

In the case of VTLELSQLSMLPSLADLVSYSIQK [H13S], the protein stability index worked out at 2.57.

As to VTLELSQLSMLPFLADLVSYSIQK [H13F], the protein stability index turned out to be 2.48.

Take VTLELSQLSMLPHLADHVSYSIQK [L17H]: the protein stability index was 1.98.

For VTLELSQLSMLPHLADMVSYSIQK [L17M], the protein stability index turned out to be 2.75.

For VTLELSQLSMLPHLADQVSYSIQK [L17Q], the protein stability index was found to be 2.42.

Turning to VTLELSQLSMLPHLADVVSYSIQK [L17V], the protein stability index was 1.66.

Regarding VTLELSQLSMLPHLADTVSYSIQK [L17T], the protein stability index came out at 2.47.

Variants of B2 are the subject of the next series. The series is described as above. As to conditions: c terminus: a fixed tail appended.
Take RDAIEALCRRLNTLNKCAVMKTEI [L22T]: the protein stability index was 2.54.

Regarding RDAIEALCRRLNTLNKCAVMKGEI [L22G], the protein stability index turned out to be 1.5.

In the case of RDAIEALCRRLNTLNKCAVMKSEI [L22S], the protein stability index came to 1.45.

RDAIEALCRRLNTLNKCAVMKKEI [L22K]: the protein stability index worked out at 1.91.

On to RDAIEALCRRLNTLNKCAVMKYEI [L22Y], for which the protein stability index stood at 2.29.

As for RDAIEALCRRLNTLNKCAVMKMEI [L22M], the protein stability index is 3.06.

Regarding RDAIEALCRRLNTLNKCAVMKPEI [L22P], the protein stability index came to 1.43.

For the variant RDAIEALCRRLNTLNKCAVMKIEI [L22I], the protein stability index came out at 1.89.

For the variant RDAIEALCRRLNTLNKCAVMKQEI [L22Q], the protein stability index worked out at 2.59.

Take RDAIEALCRRLNTLNKCAVMKDEI [L22D]: the protein stability index came out at 1.5.

As to RDAIEALCRRLNTLNKCAVMKHEI [L22H], the protein stability index was found to be 1.44.

On to RDAIEALCRRLNTLNKCAVMKEEI [L22E], for which the protein stability index came to 1.93.

For the variant RDAIEALCRRLNTLNKCAVMKCEI [L22C], the protein stability index was determined as 2.69.

RDAIEALCRRLNTLNKCAVMKNEI [L22N]: the protein stability index came to 1.54.

RDAIEALCRRLNTLNKCAVMYLEI [K21Y]: the protein stability index worked out at 2.5.

RDAIEALCRRLNTLNKCAVMTLEI [K21T]: the protein stability index turned out to be 2.06.

Turning to RDAIEALCRRLNTLNKCAVMKLDI [E23D], the protein stability index worked out at 1.52.

Take RDAIEALCRRLNTLNKCAVMKLFI [E23F]: the protein stability index amounted to 2.3.

Regarding RDAIEALCRRLNTLNKCAVMKLQI [E23Q], the protein stability index was 4.6.

Turning to RDAIEALCRRLNTLNKCAVMKLHI [E23H], the protein stability index came out at 2.39.

As for RDAIEALCRRLNTLNKCAVMKLWI [E23W], the protein stability index came out at 3.37.

In the case of RDAIEALCRRLNTLNKCAVMKLNI [E23N], the protein stability index turned out to be 3.12.

With RDAIEALCRRLNTLNKCAVMKLKI [E23K], the protein stability index is 2.65.

Regarding RDAIEALCRRLNTLNKCAVMKLGI [E23G], the protein stability index turned out to be 2.23.

With RDAIEALCRRLNTLNKCAVMKLPI [E23P], the protein stability index came out at 2.27.

On to RDAIEALCRRLNTLNKCAVMKLAI [E23A], for which the protein stability index amounted to 2.38.

In the case of RDAIEALCRRLNTLNKCAVMKLCI [E23C], the protein stability index is 2.07.

RDAIEALCRRLNTLNKCAVMKLYI [E23Y]: the protein stability index came out at 1.36.

For RDAIEALCRRLNTLNKCAVMKLII [E23I], the protein stability index came out at 1.47.

For the variant RDAIEALCRRLNTLNKCAVMKLEA [I24A], the protein stability index worked out at 1.18.

RDAIEALCRRLNTLNKCAVMKLEV [I24V]: the protein stability index was 2.45.

Turning to RDAIEALCRRLNTLNKCAVMKLEC [I24C], the protein stability index came out at 3.03.

Regarding RDAIEALCRRLNTLNKCAVMKLET [I24T], the protein stability index amounted to 2.21.

In the case of RDAIEALCRRLNTLNKCAVMKLEQ [I24Q], the protein stability index turned out to be 1.75.

For RDAIEALCRRLNTLNKCAVMKLEE [I24E], the protein stability index was 1.36.

With RDAIEALCRRLNTLNKCAVMKLEF [I24F], the protein stability index stood at 2.04.

For the variant RDAIEALCRRLNTLNKCAVMKLER [I24R], the protein stability index worked out at 1.5.

As to RDAIEALCRRLNTLNKCAVMKLEP [I24P], the protein stability index was 1.71.

Turning to RDAIEALCRRLNTLNKCAVMKLEL [I24L], the protein stability index came out at 2.75.

In the case of RDAIEALCRRLNTLNKCAVMKLES [I24S], the protein stability index came out at 1.91.

Consider RDAIEALCRRLNTLNKCAVMKLEK [I24K], for which the protein stability index was found to be 1.87.

As to RDAIEALCRRLNTLNKCAVMKLEY [I24Y], the protein stability index is 1.29.

Regarding RDAIEALCRRLNTLNKCAVMKLEN [I24N], the protein stability index was determined as 1.63.

For the variant RDAIEALCRRLNTLNKCAVMKLEH [I24H], the protein stability index was found to be 1.73.

In the case of RDAIEALCRRLNTLNKCAVMKLED [I24D], the protein stability index is 1.52.

Take RDAIEALCRRLNTLNKCAVMKLEG [I24G]: the protein stability index is 1.13.

Consider RDAIEALCRRLNTLNKCAVMKLEM [I24M], for which the protein stability index came to 2.39.

Consider RDAIEALCRRLNTLNKCAVMKLEW [I24W], for which the protein stability index is 1.66.

(Values after the supplement of paper PMC10567573.)
